Source: patent US20260242478A1 (published 2026)
Where no end group is shown, it is not given here.

How the values were obtained:
[1] = biological target: T1, PSMA Fab (006 PSMA Fab) (biotinylated (site not stated)); assay: clonal phage supernatant on captured PSMA Fab pre-incubated with the competitor PSMA antigen, anti-M13-HRP detection
T1 construct: Biotinylated PSMA Fab captured on neutravidin coated plates in the phage ELISA; also called Anti-PSMA Fab; anti-PSMA Fab

[2] = biological target: T1, PSMA Fab (006 PSMA Fab); assay: clonal phage supernatant on biotinylated PSMA Fab captured on neutravidin plate, anti-M13-HRP detection;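 also: before phage were added, wells received PSMA antigen in blocking buffer or blocking buffer alone, with no wash in between, followed by a short phage incubation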
Procedure: (§1) Clonal phage were harvested as crude supernatants and screened via standard ELISAs. […] Prior to the addition of clonal phage. wells were incubated with blocking buffer and PSMA antigen or blocking buffer alone. Without washing or aspirating, clonal phage supernatants were then added to the wells and incubated for a short time. Wells were then washed followed by detection of bound phage using a horse radish conjugated anti-M13 antibody.

[3] = biological target: T2, PSMA Fab (006 PSMA Fab) (biotinylated (site not stated)); assay: phage ELISA: clonal phage on biotinylated PSMA Fab captured on neutravidin plate, anti-M13 HRP detection
T2 construct: Captured as biotinylated PSMA Fab on neutravidin coated plates in the phage ELISA; also called Anti-PSMA Fab; anti-PSMA Fab

[4] = biological target: T2, PSMA Fab (006 PSMA Fab); assay: phage ELISA: clonal phage on biotinylated PSMA Fab captured on neutravidin plate, wells pre-incubated with PSMA antigen as competitor, anti-M13 HRP detection
Procedure: as §1

[5] = biological target: T3, PSMA Fab; assay: clonal phage ELISA; biotinylated PSMA Fab on neutravidin plate, wells pre-incubated with PSMA antigen as competitor; anti-M13 HRP detection;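 also: crude clonal phage supernatants added to antigen-treated wells without a wash, incubated briefly, then bound phage read out via horse radish–conjugated anti-M13 antibody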
T3 construct: also called Anti-PSMA Fab; 006 PSMA Fab
Procedure: as §1

[6] = biological target: T3, PSMA Fab; assay: clonal phage ELISA; biotinylated PSMA Fab on neutravidin plate, blocking buffer alone; anti-M13 HRP detection;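 also: crude clonal phage supernatants added without washing to wells pretreated with blocking buffer with or without PSMA antigen, short incubation, then washed before detecting bound phage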
Procedure: as §1

[7] = biological target: T4, Anti-PSMA Fab; assay: clonal phage ELISA; biotinylated PSMA Fab on neutravidin plate, wells pre-incubated with PSMA antigen as competitor; anti-M13 HRP detection;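 also: crude clonal phage supernatants added to antigen-treated wells without a wash, incubated briefly, then bound phage read out via horse radish–conjugated anti-M13 antibody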
T4 construct: also called 006 PSMA Fab
Procedure: as §1

[8] = biological target: T4, Anti-PSMA Fab; assay: clonal phage ELISA; biotinylated PSMA Fab on neutravidin plate, blocking buffer alone; anti-M13 HRP detection;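 also: crude clonal phage supernatants added without washing to wells pretreated with blocking buffer with or without PSMA antigen, short incubation, then washed before detecting bound phage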
Procedure: as §1

Binder	Phage binding ELISA signal, Anti-PSMA Fab in presence of PSMA antigen [1]	Phage binding ELISA signal, Anti-PSMA Fab [2]	Phage binding ELISA signal, Anti-PSMA Fab [3]	Phage binding ELISA signal, Anti-PSMA Fab in presence of PSMA [4]	also measured
GDVRCVPSWMCEGY (not shown: pIII filament protein of the bacteriophage) [Phage-3704]	0.0816	1.43	–	–	–
MEWHCKPKWMCEGF [Phage-3717]	–	–	1.42	0.0772	–
QSVMCRPAWMCEGF [Phage-3748]	–	–	–	–	Phage binding ELISA signal, Anti-PSMA Fab with PSMA antigen [5]: 0.0813; Phage binding ELISA signal, Anti-PSMA Fab [6]: 1.38
IDRHCVPRWMCDGL [Phage-3727]	–	–	1.41	0.0751	–
TLFACVPAWMCDGF [Phage-3726]	–	–	1.41	0.0757	–
WIKECVPDWMCSGF [Phage-3745]	–	–	–	–	Phage binding ELISA signal, Anti-PSMA Fab with PSMA antigen [5]: 0.0803; Phage binding ELISA signal, Anti-PSMA Fab [6]: 1.38
FELYCVPAWMCSGF [Phage-3753]	–	–	–	–	Phage binding ELISA signal, Anti-PSMA Fab with PSMA antigen [5]: 0.16; Phage binding ELISA signal, Anti-PSMA Fab [6]: 1.37
VMPRCEPIWMCRGF [Phage-3746]	–	–	–	–	Phage binding ELISA signal, Anti-PSMA Fab with PSMA antigen [5]: 0.0701; Phage binding ELISA signal, Anti-PSMA Fab [6]: 1.38
GENWCVPQWMCDGF [Phage-3721]	–	–	1.41	0.139	–
AYMKCSPAWMCEGF [Phage-3722]	–	–	1.41	0.0811	–
TDRVCTPAWMCQGL (not shown: pIII filament protein of the bacteriophage) [Phage-3708]	0.0772	1.43	–	–	–
DVLMCTPRWMCDGF [Phage-3725]	–	–	1.41	0.0822	–
VPALCVPNWMCSGL [Phage-3749]	–	–	–	–	Phage binding ELISA signal, Anti-PSMA Fab with PSMA antigen [5]: 0.0565; Phage binding ELISA signal, Anti-PSMA Fab [6]: 1.38
EHIRCQPSWMCWGF (cysteine pairing not given here; also: displayed on phage as pIII fusion, not shown: pIII filament protein of the bacteriophage) [Phage-3709]	0.128	1.43	–	–	–
VPRMCIPHWMCEGI (not shown: pIII filament protein of the bacteriophage) [Phage-3703]	0.0731	1.43	–	–	–
IERMCMPPWMCSAL [Phage-3716]	–	–	1.42	0.0662	–
EVLLCKPSWMCDGF (not shown: pIII filament protein of the bacteriophage) [Phage-3701]	0.185	1.44	–	–	–
EAKVCKPAWMCDGL [Phage-3754]	–	–	–	–	Phage binding ELISA signal, Anti-PSMA Fab with PSMA antigen [5]: 0.077; Phage binding ELISA signal, Anti-PSMA Fab [6]: 1.37
EGRYCVPDWMCLGL (cysteine pairing not given here; also: displayed on phage as pIII fusion, not shown: pIII filament protein of the bacteriophage) [Phage-3710]	0.0705	1.43	–	–	–
ESRLCVPTWMCTWL [Phage-3728]	–	–	1.41	0.0946	–
YGVQCVPSWMCQGF [Phage-3715]	–	–	1.42	0.0735	–

Binder	Phage binding ELISA signal, Anti-PSMA Fab in presence of PSMA antigen [1]	Phage binding ELISA signal, Anti-PSMA Fab [2]	Phage binding ELISA signal, Anti-PSMA Fab [3]	Phage binding ELISA signal, Anti-PSMA Fab in presence of PSMA [4]	also measured
VDHMCKPMWMCNGF (not shown: pIII filament protein of the bacteriophage) [Phage-3707]	0.0673	1.43	–	–	–
EQPACVPKWMCIGF [Phage-3750]	–	–	–	–	Phage binding ELISA signal, Anti-PSMA Fab with PSMA antigen [5]: 0.0893; Phage binding ELISA signal, Anti-PSMA Fab [6]: 1.38
ETPRCVPWWMCIDI [Phage-3751]	–	–	–	–	Phage binding ELISA signal, Anti-PSMA Fab with PSMA antigen [5]: 0.0731; Phage binding ELISA signal, Anti-PSMA Fab [6]: 1.37
GLPYCVPSWMCDGF [Phage-3700]	–	–	–	–	Phage binding ELISA signal, Anti-PSMA Fab in presence of PSMA [7]: 0.0858; Phage binding ELISA signal, Anti-PSMA Fab [8]: 1.44
EVWMCRPSWMCDGF (cysteine pairing not given here; also: displayed on phage as pIII fusion, not shown: pIII filament protein of the bacteriophage) [Phage-3712]	0.0717	1.43	–	–	–
PGALCVPFWMCQGF (not shown: pIII filament protein of the bacteriophage) [Phage-3702]	0.108	1.44	–	–	–
MSMSCVPLWMCSGF (not shown: pIII filament protein of the bacteriophage) [Phage-3705]	0.0698	1.43	–	–	–
PYAVCVPKWMCSGF [Phage-3723]	–	–	1.41	0.0805	–
LEGMCKPAWMCTGF (cysteine pairing not given here; also: displayed on phage as pIII fusion, not shown: pIII filament protein of the bacteriophage) [Phage-3713]	0.0862	1.42	–	–	–
EIPLCRPEWMCTGL (not shown: pIII filament protein of the bacteriophage) [Phage-3706]	0.126	1.43	–	–	–
SEALCVPKWMCHGF [Phage-3719]	–	–	1.42	0.0994	–
GQAACVPSWMCSGF (cysteine pairing not given here; also: displayed on phage as pIII fusion, not shown: pIII filament protein of the bacteriophage) [Phage-3714]	0.0867	1.42	–	–	–
MEPVCLPEWMCWGF [Phage-3747]	–	–	–	–	Phage binding ELISA signal, Anti-PSMA Fab with PSMA antigen [5]: 0.0902; Phage binding ELISA signal, Anti-PSMA Fab [6]: 1.38
NSSLCIPSWMCSGF [Phage-3752]	–	–	–	–	Phage binding ELISA signal, Anti-PSMA Fab with PSMA antigen [5]: 0.0738; Phage binding ELISA signal, Anti-PSMA Fab [6]: 1.37
YLHECRPEWMCVGF [Phage-3699]	–	–	–	–	Phage binding ELISA signal, Anti-PSMA Fab in presence of PSMA [7]: 0.153; Phage binding ELISA signal, Anti-PSMA Fab [8]: 1.45
PGKVCEPIWMCLGF (cysteine pairing not given here; also: displayed on phage as pIII fusion) [Phage-3744]	–	–	–	–	Phage binding ELISA signal, Anti-PSMA Fab with PSMA antigen [5]: 0.124; Phage binding ELISA signal, Anti-PSMA Fab [6]: 1.38
IAFRCVPEWMCSAF (cysteine pairing not given here; also: displayed on phage as pIII fusion, not shown: pIII filament protein of the bacteriophage) [Phage-3711]	0.07	1.43	–	–	–
EPRACVPFWMCLGF [Phage-3720]	–	–	1.42	0.0796	–
ESPICKPSWMCSGL [Phage-3718]	–	–	1.42	0.0616	–
EEKLCKPAWMCEWF [Phage-3724]	–	–	1.41	0.096	–
